In US20250277023A1 (published 2025):

T1: TIGIT (on CHO-TIGIT cells) (UniProt Q495A1 22-244)
T1 chain: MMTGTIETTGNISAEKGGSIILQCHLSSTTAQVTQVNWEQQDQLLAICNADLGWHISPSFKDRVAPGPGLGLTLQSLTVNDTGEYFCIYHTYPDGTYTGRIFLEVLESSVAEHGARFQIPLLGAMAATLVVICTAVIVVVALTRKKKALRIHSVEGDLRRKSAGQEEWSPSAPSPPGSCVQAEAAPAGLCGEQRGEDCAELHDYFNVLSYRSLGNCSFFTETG

B1: R1123: TIGIT_VH_IL21R/TIGIT_VL_IL21/PD-L1-Fab (bispecific antibody)
chain 1: not shown
chain 2: not shown
heavy: EVQLQESGPGLVKPSETLSLTCAVYGDSITSGYWNWIRKPPGKGLEYMGYISYTGSTYQNPSLKSRITFSRDTSKNQYYLKLSSVTAADTATYYCARSRAWIRTYFDYWGQGTLVTVSSASTKGPSVFPLAPSSKSTSGGTAALGCLVKDYFPEPVTVSWNSGALTSGVHTFPAVLQSSGLYSLSSVVTVPSSSLGTQTYICNVNHKPSNTKVDKRVEPKSCDKTHTCPPCPAPELLGGPSVFLFPPKPKDTLMISRTPEVTCVVVDVSHEDPEVKFNWYVDGVEVHNAKTKPREEQYNSTYRVVSVLTVLHQDWLNGKEYKCKVSNKALPAPIEKTISKAKGQPREPQVYTLPPSREEMTKNQVSLWCLVKGFYPSDIAVEWESNGQPENNYDTTPPVLDSDGSFFLYSDLTVDKSRWQQGNVFSCSVMHEALHNHYTQKSLSLSPGK
light: EIVLTQSPDFQSVTPKEKVTITCSVSSSISSSNLHWYQQKPDQSPKLLIYGTSNLASGVPSRFSGSGSGTDFTLTINSLEAEDAATYYCQQWSSYPLTFGQGTKLEIKRTVAAPSVFIFPPSDEQLKSGTASVVCLLNNFYPREAKVQWKVDNALQSGNSQESVTEQDSKDSTYSLSSTLTLSKADYEKHKVYACEVTHQGLSSPVTKSFNRGEC
B2: R1043 (bispecific antibody)
chain 1: QVQLESEGGLFKPTDTLTLTCTVSGSSLSSSYMSWVRQAPGKGLEWIGIIGSNGNTYYANWAKGRFTISKTSTTVELKITSPTTEDTATYFCARGGYRTSGMDPWGPGTLVTVSSGGGGSGGGGSGGGGSGGGGSGITCPPPMSVEHADIWVKSYSLYSRERYICNSGFKRKAGTSSLTECVLNKATNVAHWTTPSLKCIRDPALVHQRPAPPSTVTTAGVTPQPESLSPSGKEPAASSPSSNNTAATTAAIVPGSQLMPSKSPSTGTTEISSHESSHGTPSQTTAKNWELTASASHQPPGVYPQGHSDTTEPRGPTIKPCPPCKCPAPNLLGGPSVFIFPPKIKDVLMISLSPIVTCVVVDVSEDDPDVQISWFVNNVEVHTAQTQTHREDYNSTLRVVSALPIQHQDWMSGKEFKCKVNNKDLPAPIERTISKPKGSVRAPQVYVLPPPEEEMTKKQVTLWCMVTDFMPEDIYVEWTNNGKTELNYDNTEPVLDSDGSYFMYSDLRVEKKNWVERNSYSCSVVHEGLHNHHTTKSFSRTPGK
chain 2: not shown
heavy: EVQLLESGGGLVQPGGSLRLSCAASGFTFSSYIMMWVRQAPGKGLEWVSSIYPSGGITFYADTVKGRFTISRDNSKNTLYLQMNSLRAEDTAVYYCARIKLGTVTTVDYWGQGTLVTVSSAKTTAPSVYPLAPVCGDTTGSSVTLGCLVKGYFPEPVTLTWNSGSLSSGVHTFPAVLQSDLYTLSSSVTVTSSTWPSQSITCNVAHPASSTKVDKKIEPRGPTIKPCPPCKCPAPNLLGGPSVFIFPPKIKDVLMISLSPIVTCVVVDVSEDDPDVQISWFVNNVEVHTAQTQTHREDYNSTLRVVSALPIQHQDWMSGKEFKCKVNNKDLPAPIERTISKPKGSVRAPQVYVLPPPEEEMTKKQVTLTCRVTDFMPEDIYVEWTNNGKTELNYKNTEPVLKSDGSYFMASKLRVEKKNWVERNSYSCSVVHEGLHNHHTTKSFSRTPGK
light: DIVMTQTPASVEVAVGGTVTIKCQASQSISSYLNWYQQKPGQPPKLLIYDALKLASGVPSRFSGSGSGTEYTLTISGVESADAATYYCQQEHSVGNVDNVFGGGTEVVVKRTDAAPTVSIFPPSSEQLTSGGASVVCFLNNFYPKDINVKWKIDGSERQNGVLNSWTDQDSKDSTYSMSSTLTLTKDEYERHNSYTCEATHKTSTSPIVKSFNRNEC
B3: R0774 (Tigit monoclonal antibody) (antibody, V domains shown)
VH: QVQLVQSGAEVKKPGSSVKVSCKASGYSFTSYWMNWVRQAPGQGLEWIGMIRPSDSETRLNQMFKDRVTITVDKSTSTAYMELSSLRSEDTAVYYCAGIHDYGHGAYWGQGTLVTVSS
VL: DIQMTQSPSSLSASVGDRVTITCRASENIYSNLAWYQQKPGKSPKLLVYAASHLPDGVPSRFSGSGSGTDYSLTISSLQPEDFATYYCQHFWGTPRTFGQGTKLEIK
B4: R1042 (bispecific antibody)
chain 1: EVQLLESGGGLVQPGGSLRLSCAASGFTFSSYIMMWVRQAPGKGLEWVSSIYPSGGITFYADTVKGRFTISRDNSKNTLYLQMNSLRAEDTAVYYCARIKLGTVTTVDYWGQGTLVTVSSGGGGSGGGGSGGGGSGGGGSGITCPPPMSVEHADIWVKSYSLYSRERYICNSGFKRKAGTSSLTECVLNKATNVAHWTTPSLKCIRDPALVHQRPAPPSTVTTAGVTPQPESLSPSGKEPAASSPSSNNTAATTAAIVPGSQLMPSKSPSTGTTEISSHESSHGTPSQTTAKNWELTASASHQPPGVYPQGHSDTTEPRGPTIKPCPPCKCPAPNLLGGPSVFIFPPKIKDVLMISLSPIVTCVVVDVSEDDPDVQISWFVNNVEVHTAQTQTHREDYNSTLRVVSALPIQHQDWMSGKEFKCKVNNKDLPAPIERTISKPKGSVRAPQVYVLPPPEEEMTKKQVTLWCMVTDFMPEDIYVEWTNNGKTELNYDNTEPVLDSDGSYFMYSDLRVEKKNWVERNSYSCSVVHEGLHNHHTTKSFSRTPGK
chain 2: not shown
heavy: QVQLESEGGLFKPTDTLTLTCTVSGSSLSSSYMSWVRQAPGKGLEWIGIIGSNGNTYYANWAKGRFTISKTSTTVELKITSPTTEDTATYFCARGGYRTSGMDPWGPGTLVTVSSAKTTAPSVYPLAPVCGDTTGSSVTLGCLVKGYFPEPVTLTWNSGSLSSGVHTFPAVLQSDLYTLSSSVTVTSSTWPSQSITCNVAHPASSTKVDKKIEPRGPTIKPCPPCKCPAPNLLGGPSVFIFPPKIKDVLMISLSPIVTCVVVDVSEDDPDVQISWFVNNVEVHTAQTQTHREDYNSTLRVVSALPIQHQDWMSGKEFKCKVNNKDLPAPIERTISKPKGSVRAPQVYVLPPPEEEMTKKQVTLTCRVTDFMPEDIYVEWTNNGKTELNYKNTEPVLKSDGSYFMASKLRVEKKNWVERNSYSCSVVHEGLHNHHTTKSFSRTPGK
light: QSALTQPASVSGSPGQSITISCTGTSSDVGGYNYVSWYQQHPGKAPKLMIYDVSNRPSGVSNRFSGSKSGNTASLTISGLQAEDEADYYCSSYTSSSTRVFGTGTKVTVLRTDAAPTVSIFPPSSEQLTSGGASVVCFLNNFYPKDINVKWKIDGSERQNGVLNSWTDQDSKDSTYSMSSTLTLTKDEYERHNSYTCEATHKTSTSPIVKSFNRNEC
B5: R0952: TIGIT_VH_IL15/TIGIT_VL_IL15RA/PD-L1-Fab (bispecific antibody)
chain 1: not shown
chain 2: DIVMTQTPASVEVAVGGTVTIKCQASQSISSYLNWYQQKPGQPPKLLIYDALKLASGVPSRFSGSGSGTEYTLTISGVESADAATYYCQQEHSVGNVDNVFGGGTEVVVKGGGGSGGGGSGGGGSGGGGSGITCPPPMSVEHADIWVKSYSLYSRERYICNSGFKRKAGTSSLTECVLNKATNVAHWTTPSLKCIRDPALVHQRPAPPSTVTTAGVTPQPESLSPSGKEPAASSPSSNNTAATTAAIVPGSQLMPSKSPSTGTTEISSHESSHGTPSQTTAKNWELTASASHQPPGVYPQGHSDTT
heavy: EVQLLESGGGLVQPGGSLRLSCAASGFTFSSYIMMWVRQAPGKGLEWVSSIYPSGGITFYADTVKGRFTISRDNSKNTLYLQMNSLRAEDTAVYYCARIKLGTVTTVDYWGQGTLVTVSSAKTTAPSVYPLAPVCGDTTGSSVTLGCLVKGYFPEPVTLTWNSGSLSSGVHTFPAVLQSDLYTLSSSVTVTSSTWPSQSITCNVAHPASSTKVDKKIEPRGPTIKPCPPCKCPAPNLLGGPSVFIFPPKIKDVLMISLSPIVTCVVVDVSEDDPDVQISWFVNNVEVHTAQTQTHREDYNSTLRVVSALPIQHQDWMSGKEFKCKVNNKDLPAPIERTISKPKGSVRAPQVYVLPPPEEEMTKKQVTLTCRVTDFMPEDIYVEWTNNGKTELNYKNTEPVLKSDGSYFMASKLRVEKKNWVERNSYSCSVVHEGLHNHHTTKSFSRTPGK
light: QSALTQPASVSGSPGQSITISCTGTSSDVGGYNYVSWYQQHPGKAPKLMIYDVSNRPSGVSNRFSGSKSGNTASLTISGLQAEDEADYYCSSYTSSSTRVFGTGTKVTVLRTDAAPTVSIFPPSSEQLTSGGASVVCFLNNFYPKDINVKWKIDGSERQNGVLNSWTDQDSKDSTYSMSSTLTLTKDEYERHNSYTCEATHKTSTSPIVKSFNRNEC
B6: R0951: TIGIT_VH_IL15RA/TIGIT_VL_IL15/PD-L1-Fab (bispecific antibody)
chain 1: QVQLESEGGLFKPTDTLTLTCTVSGSSLSSSYMSWVRQAPGKGLEWIGIIGSNGNTYYANWAKGRFTISKTSTTVELKITSPTTEDTATYFCARGGYRTSGMDPWGPGTLVTVSSGGGGSGGGGSGGGGSGGGGSGITCPPPMSVEHADIWVKSYSLYSRERYICNSGFKRKAGTSSLTECVLNKATNVAHWTTPSLKCIRDPALVHQRPAPPSTVTTAGVTPQPESLSPSGKEPAASSPSSNNTAATTAAIVPGSQLMPSKSPSTGTTEISSHESSHGTPSQTTAKNWELTASASHQPPGVYPQGHSDTTEPRGPTIKPCPPCKCPAPNLLGGPSVFIFPPKIKDVLMISLSPIVTCVVVDVSEDDPDVQISWFVNNVEVHTAQTQTHREDYNSTLRVVSALPIQHQDWMSGKEFKCKVNNKDLPAPIERTISKPKGSVRAPQVYVLPPPEEEMTKKQVTLWCMVTDFMPEDIYVEWTNNGKTELNYDNTEPVLDSDGSYFMYSDLRVEKKNWVERNSYSCSVVHEGLHNHHTTKSFSRTPGK
chain 2: not shown
heavy: EVQLLESGGGLVQPGGSLRLSCAASGFTFSSYIMMWVRQAPGKGLEWVSSIYPSGGITFYADTVKGRFTISRDNSKNTLYLQMNSLRAEDTAVYYCARIKLGTVTTVDYWGQGTLVTVSSAKTTAPSVYPLAPVCGDTTGSSVTLGCLVKGYFPEPVTLTWNSGSLSSGVHTFPAVLQSDLYTLSSSVTVTSSTWPSQSITCNVAHPASSTKVDKKIEPRGPTIKPCPPCKCPAPNLLGGPSVFIFPPKIKDVLMISLSPIVTCVVVDVSEDDPDVQISWFVNNVEVHTAQTQTHREDYNSTLRVVSALPIQHQDWMSGKEFKCKVNNKDLPAPIERTISKPKGSVRAPQVYVLPPPEEEMTKKQVTLTCRVTDFMPEDIYVEWTNNGKTELNYKNTEPVLKSDGSYFMASKLRVEKKNWVERNSYSCSVVHEGLHNHHTTKSFSRTPGK
light: QSALTQPASVSGSPGQSITISCTGTSSDVGGYNYVSWYQQHPGKAPKLMIYDVSNRPSGVSNRFSGSKSGNTASLTISGLQAEDEADYYCSSYTSSSTRVFGTGTKVTVLRTDAAPTVSIFPPSSEQLTSGGASVVCFLNNFYPKDINVKWKIDGSERQNGVLNSWTDQDSKDSTYSMSSTLTLTKDEYERHNSYTCEATHKTSTSPIVKSFNRNEC

Legend:
[1] = target: T2, PD-L1 (on CHO-PD-L1 cells) (UniProt Q9NZQ7 19-290); assay: FACS binding; Fig. 22
T2 sequence (Q9NZQ7 19-290): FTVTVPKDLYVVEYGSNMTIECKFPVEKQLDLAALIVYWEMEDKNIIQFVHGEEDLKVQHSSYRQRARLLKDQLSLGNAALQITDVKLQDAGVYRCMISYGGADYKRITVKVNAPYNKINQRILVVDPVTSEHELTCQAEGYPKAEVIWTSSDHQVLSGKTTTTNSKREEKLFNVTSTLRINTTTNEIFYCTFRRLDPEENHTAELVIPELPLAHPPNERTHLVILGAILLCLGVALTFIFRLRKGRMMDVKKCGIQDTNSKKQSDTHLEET

[2] = target: T1, TIGIT (on CHO-TIGIT cells); assay: FACS binding; Fig. 17
IL15R = assay: FACS binding; Fig. 29
[3] = target: T2, PD-L1 (on CHO-PD-L1 cells); assay: FACS binding; Fig. 21

| Binder | EC50 [2] | EC50 (IL15R) | EC50 [3] | further results |
| --- | --- | --- | --- | --- |
| B1 | 2.89 nM |  |  | EC50 [1]: 5.22 nM |
| B2 |  | 1.07 nM |  |  |
| B3 | 0.678 nM |  |  |  |
| B4 |  | 0.862 nM |  |  |
| B5 |  |  | 0.43 nM |  |
| B6 |  |  | 0.46 nM |  |
